Experimental findings from US20160333096A1 (published 2016) are described below.

In assay [1] the target is T1, canine PD-1 antigen (canine).
T1 construct: also called cPD-1; canine Programmed Death Receptor 1
T1 chain: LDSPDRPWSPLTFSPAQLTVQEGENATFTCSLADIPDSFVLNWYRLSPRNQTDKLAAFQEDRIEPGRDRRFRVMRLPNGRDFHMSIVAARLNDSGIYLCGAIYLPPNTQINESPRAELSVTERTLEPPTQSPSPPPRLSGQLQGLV
The assay is described as follows: SPR (Biacore T200), canine PD-1 amine-coupled to chip, antibody as analyte, 1:1 fit. From the text:
(§1) Approximately 70 resonance units (RU) of the canine PD-1 antigen was immobilized directly by amine coupling. Affinity measurements were made via label-free surface plasmon resonance based technology (e.g., Biacore® T200) with an association time of 300 seconds, a dissociation time of 1200 seconds, and at concentrations of 50, 100, 200 (×2) 400, and 800 nanomolar (nM). A fitting model of 1:1 binding was used. […] Moreover, the mouse anti-canine PD-1 monoclonal antibody and the corresponding caninized mouse anti-canine PD-1 monoclonal antibody from the same clone yielded strikingly similar Kd values (see Table 5 below).
In general terms: Surface plasmon resonance follows binding to a sensor surface in real time, without labels.

Assay [2] has as its target T1, canine PD-1 antigen. Put plainly: SPR (Biacore T200), canine PD-1 amine-coupled to chip, antibody as analyte, 1:1 fit; off-rate below detection limit.
Source text: as §1

B1: Murine 3B6 (antibody, V domains shown)
VH: QIQLVQSGPELKKPGETVKISCKASGYTFTTYGMSWVKQAPGKGLKWMGWINIYSGIPTYADDFKGRFAFSLETSASTAYLQIDNLKNEDTATYFCARFDGPDYWGQGTTLTVSS
VL: DIVMTQSPSSLAVSVGRKVTMSCKSSQSLLNSVNQKNYLAWYQQKPGQSPKVLVYFASARVSGVPDRFIGSGSGTDFTLAISSVQAEDLTTYFCQQYFSTPLTFGAGTKLELK
notes: Mouse monoclonal IgG from hybridoma; also called mAb 3B6
B1: in assay [1], the Kd worked out at 2 nM, the koff was determined as 3.4e-05 s⁻¹ and the kon was determined as 18000 M⁻¹ s⁻¹.

B2: Murine 2H9 (antibody, V domains shown)
VH: EVQLQQSVAELVRPGASVKLSCTASGFNIKNTYMHWIKQRPEQGLEWIGRIAPANVDTKYAPKFQGKATITADTSSNTAYMQLSTLTSEDTAIYYCVLIYYDYDGDIDVWGTGTTVTVSS
VL: DIQMNQSPSSLSASLGDTITITCHASQNINVWLSWYQQRPGNIPKLLIYKASHLHTGVPSRFSGSGSGTGFTLTISSLQPEDIATYYCQQGQSWPLTFGAGTKLELK
notes: also called mAb 2H9
In assay [1], B2 returned a kon of 23000 M⁻¹ s⁻¹. In assay [2], this molecule came in with a Kd of no more than 0.2 nM and a koff of no more than 5e-06 s⁻¹.

As a reminder, the Kd is the equilibrium constant for the complex coming apart. The koff is the first-order rate constant of dissociation. One may read the kon as the second-order rate constant of association.
